1 molecule from PMC3169560 (PLoS Pathogens, 2011) can be followed below.

This assay concerns the target T1, HIV-1 Env glycoprotein complex (gp120/gp41) with full-length gp41, on HIV-1 particles of proviral clone R9 … (HIV-1 group M subtype B, proviral clone …).
T1 construct: also called WT; wild-type HIV-1; copies: 3 + 3
Briefly: immunofluorescence imaging of antibody binding to single immobilised virions; IMMATURE, protease-defective particles (R9.PR- or R9Tr712.PR-) with GFP-Vpr on poly-D-lysine coated dishes; unfixed virions incubated with IgG or CD4-IgG2 (0.25 µg/mL) for 2 h at room temperature, fixed in 2% paraformaldehyde, Cy5 anti-human IgG, confocal microscopy; median average Cy5 intensity per GFP-positive particle; CD4-IgG2 results …. Particulars: one partner purified.

B1: HIV-1 gp41 mAb 4E10 (full-length IgG) (antibody, V domains shown)
VH: QVQLVQSGAEVKRPGSSVTVSCKASGGSFSTYALSWVRQAPGRGLEWMGGVIPLLTITNYAPRFQGRITITADRSTSTAYLELNSLRPEDTAVYYCAREGTTGWGWLGKPIGAFAHWGQGTLVTVSS
VL: EIVLTQSPGTQSLSPGERATLSCRASQSVGNNKLAWYQQRPGQAPRLLIYGASSRPSGVADRFSGSGSGTDFTLTISRLEPEDFAVYYCQQYGQSLSTFGQGTKVEVK
notes: copies: 2 + 2
As for B1, the “fold increase in binding to immature over mature virions, particles with an average intensity above 50 a.u.” value worked out at 6 fold and the “median average intensity per particle, PR- image over wild-type image” value amounted to 1.4 fold.
